The source of these data is patent publication US11419945B2, “Antigen binding proteins” (Glaxo Group Limited, priority 2011, dated 2022).

Residue numbers refer to the chain shown, from its start.

B1: CA8 humanised J5M2: humanised CA8 anti-BCMA antibody, VH J5 (SEQ ID NO:21) + VL M2 (SEQ ID NO:35) (antibody, V domains shown)
VH: QVQLVQSGAEVKKPGSSVKVSCKGSGYTFTNYWMHWVRQAPGQGLEWMGATYRGHSDTYYNQKFKGRVTITADTSTSTAYMELSSLRSEDTAVYYCTRGAIYDGYDVLDNWGQGTLVTVSS
VL: DIQLTQSPSSLSASVGDRVTITCSASQDISNYLNWYQQKPGKAPELVIYYTSNLHSGVPSRFSGSGSGTDYTLTISSLQPEDFATYYCQQYRKLPWTFGQGTKLEIKR
modifications: Humansed antibody sequence
B2: CA8 humanised J4M2: humanised CA8 anti-BCMA antibody, VH J4 (SEQ ID NO:19) + VL M2 (SEQ ID NO:35) (antibody, V domains shown)
VH: B1 VH with M48I, V68A, I70L, D103N
VL: B1 VL
modifications: Humansed antibody sequence
B3: CA8 humanised J0M2: humanised CA8 anti-BCMA antibody, VH J0 (SEQ ID NO:11) + VL M2 (SEQ ID NO:35) (antibody, V domains shown)
VH: B1 VH with G24A, Y27G, T30S, T74K, T97A, D103N
VL: B1 VL
modifications: Humansed antibody sequence
B4: CA8 humanised J5M1: humanised CA8 anti-BCMA antibody, VH J5 (SEQ ID NO:21) + VL M1 (SEQ ID NO:33) (antibody, V domains shown)
VH: B1 VH
VL: B1 VL with L4M, E45K, V47L
modifications: Humansed antibody sequence
B5: CA8 humanised J3M2: humanised CA8 anti-BCMA antibody, VH J3 (SEQ ID NO:17) + VL M2 (SEQ ID NO:35) (antibody, V domains shown)
VH: B1 VH with D103N
VL: B1 VL
modifications: Humansed antibody sequence
B6: CA8 humanised J4M1: humanised CA8 anti-BCMA antibody, VH J4 (SEQ ID NO:19) + VL M1 (SEQ ID NO:33) (antibody, V domains shown)
VH: B1 VH with M48I, V68A, I70L, D103N
VL: B1 VL with L4M, E45K, V47L
modifications: Humansed antibody sequence

The first assay deals with T1, Human in house BCMA (Homo sapiens, UniProt Q02223).
T1 construct: CD33 signal peptide (N); TEV site (internal); Fc (C); made in house
T1 sequence (Q02223 with tags, fused parts or gaps limits assumed): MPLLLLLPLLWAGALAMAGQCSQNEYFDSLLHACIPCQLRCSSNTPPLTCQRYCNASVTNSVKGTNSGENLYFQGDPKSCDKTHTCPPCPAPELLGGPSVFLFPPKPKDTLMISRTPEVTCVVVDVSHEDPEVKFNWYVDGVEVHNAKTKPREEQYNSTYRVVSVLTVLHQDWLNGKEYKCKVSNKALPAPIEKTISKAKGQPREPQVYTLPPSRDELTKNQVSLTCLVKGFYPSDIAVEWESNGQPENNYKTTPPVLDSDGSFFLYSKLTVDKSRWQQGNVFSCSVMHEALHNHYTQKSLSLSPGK
The experiment in a line: ProteOn analysis of CA8 chimeric and humanised constructs, human in house BCMA. The class given is binding. The settings on record: Run 1, Human in house BCMA, ProteOn, 25° C.; in M-1s-1 (unit assumed). The method, then: The initial screen of CA8 chimeric and humanised variants was carried out on the ProteOn XPR36 (Biorad). The method was as follows; Protein A was immobilised on a GLC chip (Biorad, Cat No: 176-5011) by primary amine coupling, CA8 variants were then captured on this surface and recombinant human BCMA (in house or commercial US Biological, B0410) materials (run 2 only)) passed over at 256, 64, 16, 4, 1 nM with a 0 nM injection (i.e. buffer alone) used to double reference the binding curves, the buffer used is the HBS-EP buffer. 50 mM NaOH was used to regenerate the capture surface. The data was fitted to the 1:1 model using the analysis software inherent to the ProteOn XPR36. Run 1 corresponds to the first screen of humanised CA8 variants (JO to J5 series) and run 2 to the second screen of humanised CA8 variants (J5 to J9 series). Both runs were carried out at 25° C.
On to B1, for which the ka is reported as 2.67E+05.
The same measure, in the same setting: next, B2: 2.51E+05; B3: 2.25E+05; B4: 2.97E+05.
B5 displayed a ka of 2.66E+05.
The same measure, in the same setting: then B6, with 2.54E+05.

The same assay, now with this note: Run 1, Human in house BCMA, ProteOn, 25° C.; in s-1 (unit assumed).
On to B1, for which the kd is listed as 3.21E−05.
The same measure, in the same setting: then B2, with 7.06E−05; and B3, with 6.97E−05; and B4, with 4.32E−05.
On the same count and under the same terms, next, B5: 9.64E−05.
Consider B6, for which the kd is on record as 7.04E−05.

Still in this assay, the particulars now being: Run 2, ProteOn, recombinant human BCMA; no affinity values obtained.
Regarding B1, the off rate entry is “beyond the sensitivity of the assay”.
On the same count and under the same terms, then B4, with “beyond the sensitivity of the assay”.

For another assay, the system named is Cyno in house BCMA. The experiment in a line: ProteOn analysis of CA8 chimeric and humanised constructs, cyno in house BCMA. The class given is binding. The settings on record: Run 1, Cyno in house BCMA, 25° C., in M-1s-1 (unit assumed).
Cyno in house BCMA, sequence (as listed by the source): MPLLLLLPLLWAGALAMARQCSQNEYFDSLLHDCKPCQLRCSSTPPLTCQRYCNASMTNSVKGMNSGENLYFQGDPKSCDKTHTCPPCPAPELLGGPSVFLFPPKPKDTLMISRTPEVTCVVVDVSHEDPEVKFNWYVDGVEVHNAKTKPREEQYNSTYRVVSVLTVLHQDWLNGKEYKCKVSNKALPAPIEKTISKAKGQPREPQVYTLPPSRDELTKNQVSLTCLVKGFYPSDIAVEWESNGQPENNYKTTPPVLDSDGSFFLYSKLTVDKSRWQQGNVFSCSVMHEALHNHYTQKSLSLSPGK
Molecule B1 yielded a ka of 4.30E+05.
The molecule B2 registered a ka of 3.44E+05.
Still for that read-out and setting: then B3, with 3.26E+05; and B4, with 4.81E+05; and B5, with 3.69E+05.
The same measure, in the same setting: then B6, with 3.50E+05.

Staying with this assay, now noted: Run 1, Cyno in house BCMA, 25° C., in s-1 (unit assumed).
For B1, the kd is given as 4.70E−05.
On the same count and under the same terms, then B2, with 6.15E−05; and B3, with 1.84E−04; and B4, with 5.41E−05.
On the same count and under the same terms, then B5, with 5.87E−05; and B6, with 7.10E−05.
